In general, EC50 refers to the concentration that produces a half-maximal response.

The text below walks through data of patent US6541450B1, “Parathyroid hormone analogues for the treatment of osteoporosis” (National Research Council of Canada, priority 1994, dated 2003).

Where a SMILES comes first, the peptide text is derived from it. Bridges are numbered along the chain shown (N, C = ends). Where no end group is shown, it is not given here. [ ]: non-standard residue; d: D form. Orn = NCCC[C@H](N)C(=O)O

Sequences and labels used below:
T1: adenylyl cyclase, ROS 17/2 cells (Rattus norvegicus, UniProt P25961)
T1 sequence (P25961 27-591): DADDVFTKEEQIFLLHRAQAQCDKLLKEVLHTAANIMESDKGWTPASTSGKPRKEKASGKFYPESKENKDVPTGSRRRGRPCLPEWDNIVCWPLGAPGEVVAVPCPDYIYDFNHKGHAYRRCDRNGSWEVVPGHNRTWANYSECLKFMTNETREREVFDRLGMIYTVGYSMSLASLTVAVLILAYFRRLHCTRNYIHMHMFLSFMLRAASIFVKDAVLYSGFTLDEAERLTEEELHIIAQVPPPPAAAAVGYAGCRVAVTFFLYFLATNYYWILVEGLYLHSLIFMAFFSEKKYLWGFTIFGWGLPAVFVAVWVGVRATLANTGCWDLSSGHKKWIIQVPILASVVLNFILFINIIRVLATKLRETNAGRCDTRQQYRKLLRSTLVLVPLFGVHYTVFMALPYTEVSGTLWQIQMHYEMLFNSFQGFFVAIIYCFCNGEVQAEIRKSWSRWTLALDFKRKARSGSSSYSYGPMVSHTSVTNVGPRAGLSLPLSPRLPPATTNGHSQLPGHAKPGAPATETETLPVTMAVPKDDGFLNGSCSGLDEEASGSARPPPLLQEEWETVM

B1: [Leu^27]cyclo(Lys^22-Glu^26)-hPTH-(1-31)-NH2 (peptide)
peptide: SVSEIQLMHNLGKHLNSMERVKWLRELLQDV-NH2
modifications: lactam 22-26; N-terminus assumed
SMILES: CC[C@H](C)[C@H](NC(=O)[C@H](CCC(=O)O)NC(=O)[C@H](CO)NC(=O)[C@@H](NC(=O)[C@@H](N)CO)C(C)C)C(=O)N[C@@H](CCC(N)=O)C(=O)N[C@@H](CC(C)C)C(=O)N[C@@H](CCSC)C(=O)N[C@@H](Cc1c[nH]cn1)C(=O)N[C@@H](CC(N)=O)C(=O)N[C@@H](CC(C)C)C(=O)NCC(=O)N[C@@H](CCCCN)C(=O)N[C@@H](Cc1c[nH]cn1)C(=O)N[C@@H](CC(C)C)C(=O)N[C@@H](CC(N)=O)C(=O)N[C@@H](CO)C(=O)N[C@@H](CCSC)C(=O)N[C@@H](CCC(=O)O)C(=O)N[C@@H](CCCNC(=N)N)C(=O)N[C@H](C(=O)N[C@H]1CCCCNC(=O)CC[C@@H](C(=O)N[C@@H](CC(C)C)C(=O)N[C@@H](CC(C)C)C(=O)N[C@@H](CCC(N)=O)C(=O)N[C@@H](CC(=O)O)C(=O)N[C@H](C(N)=O)C(C)C)NC(=O)[C@H](CCCNC(=N)N)NC(=O)[C@H](CC(C)C)NC(=O)[C@H](Cc2c[nH]c3ccccc23)NC1=O)C(C)C
B2: [Leu^27]cyclo(Glu^22-Lys^26)-hPTH-(1-30)-NH2 (peptide)
peptide: SVSEIQLMHNLGKHLNSMERVEWLRKLLQD-NH2
modifications: lactam 22-26; N-terminus assumed
SMILES: CC[C@H](C)[C@H](NC(=O)[C@H](CCC(=O)O)NC(=O)[C@H](CO)NC(=O)[C@@H](NC(=O)[C@@H](N)CO)C(C)C)C(=O)N[C@@H](CCC(N)=O)C(=O)N[C@@H](CC(C)C)C(=O)N[C@@H](CCSC)C(=O)N[C@@H](Cc1c[nH]cn1)C(=O)N[C@@H](CC(N)=O)C(=O)N[C@@H](CC(C)C)C(=O)NCC(=O)N[C@@H](CCCCN)C(=O)N[C@@H](Cc1c[nH]cn1)C(=O)N[C@@H](CC(C)C)C(=O)N[C@@H](CC(N)=O)C(=O)N[C@@H](CO)C(=O)N[C@@H](CCSC)C(=O)N[C@@H](CCC(=O)O)C(=O)N[C@@H](CCCNC(=N)N)C(=O)N[C@H](C(=O)N[C@H]1CCC(=O)NCCCC[C@@H](C(=O)N[C@@H](CC(C)C)C(=O)N[C@@H](CC(C)C)C(=O)N[C@@H](CCC(N)=O)C(=O)N[C@@H](CC(=O)O)C(N)=O)NC(=O)[C@H](CCCNC(=N)N)NC(=O)[C@H](CC(C)C)NC(=O)[C@H](Cc2c[nH]c3ccccc23)NC1=O)C(C)C
B3: [Leu^27]cyclo(Asp^22-Orn^26)-hPTH-(1-31)-NH2 (peptide)
peptide: SVSEIQLMHNLGKHLNSMERVDWLR[Orn]LLQDV-NH2
modifications: lactam 22-26; N-terminus assumed
SMILES: CC[C@H](C)[C@H](NC(=O)[C@H](CCC(=O)O)NC(=O)[C@H](CO)NC(=O)[C@@H](NC(=O)[C@@H](N)CO)C(C)C)C(=O)N[C@@H](CCC(N)=O)C(=O)N[C@@H](CC(C)C)C(=O)N[C@@H](CCSC)C(=O)N[C@@H](Cc1c[nH]cn1)C(=O)N[C@@H](CC(N)=O)C(=O)N[C@@H](CC(C)C)C(=O)NCC(=O)N[C@@H](CCCCN)C(=O)N[C@@H](Cc1c[nH]cn1)C(=O)N[C@@H](CC(C)C)C(=O)N[C@@H](CC(N)=O)C(=O)N[C@@H](CO)C(=O)N[C@@H](CCSC)C(=O)N[C@@H](CCC(=O)O)C(=O)N[C@@H](CCCNC(=N)N)C(=O)N[C@H](C(=O)N[C@H]1CC(=O)NCCC[C@@H](C(=O)N[C@@H](CC(C)C)C(=O)N[C@@H](CC(C)C)C(=O)N[C@@H](CCC(N)=O)C(=O)N[C@@H](CC(=O)O)C(=O)N[C@H](C(N)=O)C(C)C)NC(=O)[C@H](CCCNC(=N)N)NC(=O)[C@H](CC(C)C)NC(=O)[C@H](Cc2c[nH]c3ccccc23)NC1=O)C(C)C
B4: [Cys^22, Cys^26, Leu^27]cyclo(Cys^22-Cys^26)-hPTH-(1-31)-NH2 (peptide)
peptide: SVSEIQLMHNLGKHLNSMERVCWLRCLLQDV-NH2
modifications: disulfide 22-26; N-terminus assumed
SMILES: CC[C@H](C)[C@H](NC(=O)[C@H](CCC(=O)O)NC(=O)[C@H](CO)NC(=O)[C@@H](NC(=O)[C@@H](N)CO)C(C)C)C(=O)N[C@@H](CCC(N)=O)C(=O)N[C@@H](CC(C)C)C(=O)N[C@@H](CCSC)C(=O)N[C@@H](Cc1c[nH]cn1)C(=O)N[C@@H](CC(N)=O)C(=O)N[C@@H](CC(C)C)C(=O)NCC(=O)N[C@@H](CCCCN)C(=O)N[C@@H](Cc1c[nH]cn1)C(=O)N[C@@H](CC(C)C)C(=O)N[C@@H](CC(N)=O)C(=O)N[C@@H](CO)C(=O)N[C@@H](CCSC)C(=O)N[C@@H](CCC(=O)O)C(=O)N[C@@H](CCCNC(=N)N)C(=O)N[C@H](C(=O)N[C@H]1CSSC[C@@H](C(=O)N[C@@H](CC(C)C)C(=O)N[C@@H](CC(C)C)C(=O)N[C@@H](CCC(N)=O)C(=O)N[C@@H](CC(=O)O)C(=O)N[C@H](C(N)=O)C(C)C)NC(=O)[C@H](CCCNC(=N)N)NC(=O)[C@H](CC(C)C)NC(=O)[C@H](Cc2c[nH]c3ccccc23)NC1=O)C(C)C
B5: [Cys^26, Cys^30, Leu^27]cyclo(Cys^26-Cys^30)-hPTH-(1-31)-NH2 (peptide)
peptide: SVSEIQLMHNLGKHLNSMERVEWLRCLLQCV-NH2
modifications: disulfide 26-30; N-terminus assumed
SMILES: CC[C@H](C)[C@H](NC(=O)[C@H](CCC(=O)O)NC(=O)[C@H](CO)NC(=O)[C@@H](NC(=O)[C@@H](N)CO)C(C)C)C(=O)N[C@@H](CCC(N)=O)C(=O)N[C@@H](CC(C)C)C(=O)N[C@@H](CCSC)C(=O)N[C@@H](Cc1c[nH]cn1)C(=O)N[C@@H](CC(N)=O)C(=O)N[C@@H](CC(C)C)C(=O)NCC(=O)N[C@@H](CCCCN)C(=O)N[C@@H](Cc1c[nH]cn1)C(=O)N[C@@H](CC(C)C)C(=O)N[C@@H](CC(N)=O)C(=O)N[C@@H](CO)C(=O)N[C@@H](CCSC)C(=O)N[C@@H](CCC(=O)O)C(=O)N[C@@H](CCCNC(=N)N)C(=O)N[C@H](C(=O)N[C@@H](CCC(=O)O)C(=O)N[C@@H](Cc1c[nH]c2ccccc12)C(=O)N[C@@H](CC(C)C)C(=O)N[C@@H](CCCNC(=N)N)C(=O)N[C@H]1CSSC[C@@H](C(=O)N[C@H](C(N)=O)C(C)C)NC(=O)[C@H](CCC(N)=O)NC(=O)[C@H](CC(C)C)NC(=O)[C@H](CC(C)C)NC1=O)C(C)C
B6: [Leu^27]cyclo(Glu^22-Lys^26)-hPTH-(1-34)-OH (peptide)
peptide: SVSEIQLMHNLGKHLNSMERVEWLRKLLQDVHNF-OH
modifications: lactam 22-26; N-terminus assumed
SMILES: CC[C@H](C)[C@H](NC(=O)[C@H](CCC(=O)O)NC(=O)[C@H](CO)NC(=O)[C@@H](NC(=O)[C@@H](N)CO)C(C)C)C(=O)N[C@@H](CCC(N)=O)C(=O)N[C@@H](CC(C)C)C(=O)N[C@@H](CCSC)C(=O)N[C@@H](Cc1c[nH]cn1)C(=O)N[C@@H](CC(N)=O)C(=O)N[C@@H](CC(C)C)C(=O)NCC(=O)N[C@@H](CCCCN)C(=O)N[C@@H](Cc1c[nH]cn1)C(=O)N[C@@H](CC(C)C)C(=O)N[C@@H](CC(N)=O)C(=O)N[C@@H](CO)C(=O)N[C@@H](CCSC)C(=O)N[C@@H](CCC(=O)O)C(=O)N[C@@H](CCCNC(=N)N)C(=O)N[C@H](C(=O)N[C@H]1CCC(=O)NCCCC[C@@H](C(=O)N[C@@H](CC(C)C)C(=O)N[C@@H](CC(C)C)C(=O)N[C@@H](CCC(N)=O)C(=O)N[C@@H](CC(=O)O)C(=O)N[C@H](C(=O)N[C@@H](Cc2c[nH]cn2)C(=O)N[C@@H](CC(N)=O)C(=O)N[C@@H](Cc2ccccc2)C(=O)O)C(C)C)NC(=O)[C@H](CCCNC(=N)N)NC(=O)[C@H](CC(C)C)NC(=O)[C@H](Cc2c[nH]c3ccccc23)NC1=O)C(C)C

One assay concerns the target T1, adenylyl cyclase, ROS 17/2 cells. In words: Adenylyl cyclase stimulation, [3H]-cyclic AMP production in ROS 17/2 cells. Conditions: ROS 17/2 cells; concentration for half-maximal increase in AC activity; read-out: Adenylyl Cyclase (EC50). Format: cell-based.
For the molecule `CC[C@H](C)[C@H](NC(=O)[C@H](CCC(=O)O)NC(=O)[C@H](CO)NC(=O)[C@@H](NC(=O)[C@@H](N)CO)C(C)C)C(=O)N[C@@H](CCC(N)=O)C(=O)N[C@@H](CC(C)C)C(=O)N[C@@H](CCSC)C(=O)N[C@@H](Cc1c[nH]cn1)C(=O)N[C@@H](CC(N)=O)C(=O)N[C@@H](CC(C)C)C(=O)NCC(=O)N[C@@H](CCCCN)C(=O)N[C@@H](Cc1c[nH]cn1)C(=O)N[C@@H](CC(C)C)C(=O)N[C@@H](CC(N)=O)C(=O)N[C@@H](CO)C(=O)N[C@@H](CCSC)C(=O)N[C@@H](CCC(=O)O)C(=O)N[C@@H](CCCNC(=N)N)C(=O)N[C@H](C(=O)N[C@H]1CCC(=O)NCCCC[C@@H](C(=O)N[C@@H](C)C(=O)N[C@@H](CC(C)C)C(=O)N[C@@H](CCC(N)=O)C(=O)N[C@@H](CC(=O)O)C(=O)N[C@H](C(N)=O)C(C)C)NC(=O)[C@H](CCCNC(=N)N)NC(=O)[C@H](CC(C)C)NC(=O)[C@H](Cc2c[nH]c3ccccc23)NC1=O)C(C)C` [[Ala^27]cyclo(Glu^22—Lys^26)—hPTH—(1-31)-NH2] (H-SVSEIQLMHNLGKHLNSMERVEWLRKALQDV-NH2; lactam 22-26; N-terminus assumed), the EC50 turned out to be 9 nM.

A further assay concerns the target PTH receptor (rat (ROS 17/2 rat osteosarcoma cell …, UniProt P25961)). In words: cell-based or functional assay.
Details: not given
Consider B1, for which the “Adenylyl Cyclase (EC50)” value came out at 4 nM. The same measure, in the same setting: under B2 stands 20 nM; under B3, greater than 200 nM.

For SVSEIQLMHNLGKHLNSMERVEWLRKLLQDV-OH (lactam 22-26) [[Leu^27]cyclo(Glu^22-Lys^26)-hPTH-(1-31)-OH], the “Adenylyl Cyclase (EC50)” value was 7 nM. Consider B4, for which the “Adenylyl Cyclase (EC50)” value stood at 16 nM.

In the case of B5, the “Adenylyl Cyclase (EC50)” value is 24 nM.

As for B6, the “Adenylyl Cyclase (EC50)” value worked out at 6 nM.
